According to publication PMC8451032:

Molecular target: m971 scFv with short (GGGGS) linker
Test: SEC

m971 scFv with short (GGGGS) linker was tested, and the stoichiometry N was 2.
